Measured values taken from paper PMC5339670 (The Journal of Experimental Medicine, 2017).

Biological target: T1, Recombinant His-tagged WASp (mouse, UniProt P70315 1-520)
T1 sequence (looked up): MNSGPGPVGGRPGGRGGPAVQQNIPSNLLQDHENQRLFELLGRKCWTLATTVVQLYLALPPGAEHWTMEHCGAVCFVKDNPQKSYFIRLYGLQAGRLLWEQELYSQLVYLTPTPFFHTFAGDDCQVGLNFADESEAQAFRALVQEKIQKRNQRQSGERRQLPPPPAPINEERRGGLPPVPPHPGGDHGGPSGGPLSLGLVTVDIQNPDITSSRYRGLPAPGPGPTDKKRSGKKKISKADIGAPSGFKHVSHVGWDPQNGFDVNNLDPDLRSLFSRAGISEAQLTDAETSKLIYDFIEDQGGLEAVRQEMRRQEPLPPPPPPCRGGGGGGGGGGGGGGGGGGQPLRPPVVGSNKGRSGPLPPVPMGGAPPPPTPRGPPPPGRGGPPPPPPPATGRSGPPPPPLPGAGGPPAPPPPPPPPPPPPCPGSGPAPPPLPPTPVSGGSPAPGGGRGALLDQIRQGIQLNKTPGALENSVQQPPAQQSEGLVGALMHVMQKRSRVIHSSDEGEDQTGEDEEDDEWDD
Experiment: pull-down

binding result: binds
B1: GST fusion protein of the Skap2 SH3 domain (domain or fragment, mouse, UniProt Q3UND0 296-357, looked up)
chain: DYANFYQGLWDCTGALSDELSFKRGDVIYILSKEYNRYGWWVGEMKGAIGLVPKAYLMEMYD
